We go through 74 sequences from the supplement of paper PMC12636428.

Bounds are passed on as bounds.

The subject of the series is Saccharomyces cerevisiae. Nature of the series: transcriptional activation domain activity (GFP:mCherry ratio, weighted mean of sorted bins, harmonized to initial dataset scale) (arbitrary fluorescence ratio units); higher = stronger transcriptional activation. The conditions noted are these: beta-estradiol 1 µM; induction time 4 h. Put shortly:
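Protein tiles carrying barcodes and fused to an estradiol-inducible synthetic transcription factor were placed at the URA3 locus of yeast diploids with a GFP reporter. Following 4 hours at 30 °C in SC with 1 uM beta-estradiol, cells were sorted into 8 GFP:mCherry bins, barcodes were sequenced, and tiles with fewer than 50 reads were discarded. Activation activity is given as the read-weighted mean of bin median fluorescence, averaged across barcodes and linearly mapped to the initial dataset scale.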
Consider “SLHFNLGELRRTLLPFMWLTLKLSFFLWIFGRHAASNKRVVLCILALLCVLWE”, for which the “transcriptional activation domain activity” value is 64800.
For “GSAFGQSAFGKPATGAFGAPTSAFGSNTTTNNNTTTTSSAFGSSTATSAFGSA”, the “transcriptional activation domain activity” value is 14300.
The value for “HRRHHVLLPHPAHTLLKGCFEPAFHNSIWHILSCHMYIPCTPILLLLIIQHVL” was 33200; that for “MRIIIFMSLLLLKIIMILLLLLLRIKFNWFSFFSILKMLLSMKIMMLFLFLLL” was 35900.
The value for “LECVRFAIMTHTVDLLQKVLWSQVDHILSRLPSIRTVKFRFFMDSSLWKKAAI” was 41900; that for “HNQPVPKLLHITIYHLSTIPNDNLASFRDLLNHVHVYLLPLVSARPLFTLVTH” was 78800; that for “ESDILPRLLHAIRAELKEDISLKFAWRLYKLYLLCVYHLWKNVVLMIWYRRWI” was 81700.
The value for “VFWRSLFNRVFDFGFDLVLFVFFSLALSLYFVVSHSKSLPFWFMCFFFIPLFN” was 78000.
“ITMCSVTSVGYLGIVRWLVICLGFQPYKLRCVTLVYLTHVMTFFCIIILGIFN”: the “transcriptional activation domain activity” value is 68800.
As to “QKKLLILCGFGWLADNVSIYHLLSISCWFYYKGTQLYSLFLIRCGYRLWLLFF”, the “transcriptional activation domain activity” value turned out to be 70700.
For “AVKAEPESTAPSLVKEENTEDTKPAPSSTAPAEPSSGGMFRKRKAPAAGAGSR” the value was 39900; for “MPTLLVSLCSFFPWPLFLSFLFLVFHTFASLVIVQKSHFILSYILIMHLSFFA”, 46300.
The value for “YRTSQDLVGLSTVLEQYFNIGGLTGLLIIGDLIHCGLLPMPSIITWTRLIAHV” was 68800; that for “LVTVRTMYRSYVEHGSGIGLTFARLITKDGLVLAISDFVLVFSTFLCVPFVKL” was 44300; that for “NPPIPVIPADVDRSKIPKCKHIGSRLRHFDDDLGYYLVQVCINLLQRIWKIFY” was 37200.
Regarding “MATVISGVCFFFFFFFFCFLLCLVMAFLLLFSFLFLCDLLLRLLLLSPSFDSL”, the “transcriptional activation domain activity” value was determined as 31200.
The value for “SLSRIVGRGGAQINQIKEDTEVESLDVNQEGEGDSATVTLKGTKTAVAAAKKA” was 21900; that for “SDEEEAEVIPAKKARGKKAPVKQEEIQSDEEVLTAKKPAKQARGKKAPAAAVK” was 30600; that for “MLLIWLYALKTGLVLSGSFLLAFGTQYPFFFMYFIGKPLFHDSFFLLSFLFFP” was 70200.
The value for “SKKKGRKAQKTGSADPAPNESKDRAGATEEAAEGAADEEDEQDEDEDEDEEGE” was 37600.
With “PEPVSEEPKAESSRTATAPPSLARRAASYFVSSFRGRTLHGTKIDVPDGYTGL”, the “transcriptional activation domain activity” value is 49000.
The value for “MSTEVKAAHAGKARQKAWKPKVKTGCVTCRNRRVKCDEAKPDCRRCVAAGRKC” was 10800; that for “FDNSGFQRLESLCACLAAIKSWMDIFLKFPPLEYAHLSFTFWAQLMKCIVVLY” was 61900.
“MALPLHFRYVSVTFIFLASFFWPVGFFSFFSLFFPATNSFLLFLSAFFRLVLF”: the “transcriptional activation domain activity” value worked out at 54100.
The value for “AINTAKAEIDGVREIMTENIERVLERGEHMSVLVDKTGRLGENARDFRVRSRT” was 29100.
The value for “MPALQCALLLHQVNMAFLQWNCMLYTIYHFRIIHIIILLLHMCTRTIICLLNG” was 37700; that for “AQPPAIEGKKSKKGEAPAAEVQKKEKKEKKPAEEGASKKGGSAKAAAAPAEDA” was 9790.
For “GHGKLGYFTGKAVASIYRFILSSLHFASIFILLGKPTSSFGFIYLVIMLQFWC” the value was 50200; for “MLCMTMTTCMQWLAQFMIVYSLPYMVVSIKSFTFIFFAVCTTFSFIFTLLFVP”, 41900; for “YSQLILYLLAKAKLHWNELQNLQVIFADLFEHIHIAGILPNKYQTLSVMANAL”, 56500.
For the sequence “NCTNLPSVVVVGGSVPIDSQGLQIWSLLIYSIVLVPGLNLVVSSLIFLGIFWL”, the “transcriptional activation domain activity” value stood at 30000.
For “VEPAPENWRELTQIPAFAGIRSASFVRHTVALVESLLLRAAFVRAVFAELRAC” the value was 53700.
For “MRLNICKDLWIHSAFRMLSDISAASLFLVSRSYFIIIFTVASLGYTRMLSLYH” the value was 51900; for “ESASAAEEPAAKSKRGKKSQAEPEEEELSAVDEEHEPAPKSKRSKKSKAAVET”, 13800; for “VLAGYVVHVFGGDYFHSFSMTFFTFIWTLLFMGYIFITRDYIPKCYFYWLHIA”, 54600.
The value for “MIHGLQSYNLSFLIFFLFLLSSLFVLFVMLSKFAFVLFVDTLYCLIPYVFLFF” was 42500; that for “QLAIELSAFADDSFIFPDEDKPSNNNNNSNNGNDDHSNHDVLHEDPSTNNRQR” was 16300; that for “IRGKTLPKYFPRFHMWGHIDADIQLMSKGLITPVCIEMVYGMHPFVVYKLFMF” was 62100.
For “MDASSPTSSSAKTPHNKGPRACATCARAKSRCIAGPDGAAGNCERCHRLKKPC”, the “transcriptional activation domain activity” value was found to be 9040.
On to “MRWTSTISFFLLPLGFFFSFHPFHIPFSTFLVSFEICIFFLSFFFSFLPIFLF”, for which the “transcriptional activation domain activity” value came to 58500.
For “GFRNFVERLTFCLLEDRVRIAMMQPEQPRYLHSFVSSVMGLNWMVQRWLCLPR” the value was 47600.
The value for “LARVYIRVFVLRVFRLDDYFIVVAMLCSILACSIFLWVVHLGMGKHFFALPPE” was 63900; that for “VERCHRNIVTNGCAVFQAGGLVVVLVEVNRKSYLASIVPVIVNAILNEHQIIV” was 40900; that for “AAAVAAKKPEEKKEETPAEAATEAPKEEAKEEKKEEKAATKSRSQSRKRTSIF” was less than 6570.
On to “IIAKVIKYAKTIEELYLAYFSVKEYLLNIAIAKTCLTYLTDIKGSHSMIRYNF”, for which the “transcriptional activation domain activity” value is 28200.
The value for “MDFNGVVFCPVYISLLPLFFYPYNIYHFNDSLMRPNEISVAVYLLLILLNFQD” was 51000.
The value for “ALKKKDGDKDSADFLSQLRMGKSVLHGVDKEGRPVVSVRVRLHKGGEQTEKSL” was 36600; that for “VLGCAKIGVVLLSLWHMFHFAHYINVSPTEIFCISPVLGSWSWETLCFMMTVV” was 49600; that for “MMELEGWDGGPYIWVDLVILFWLFVILLDWFFLLAIFSTVRGSPGLVGVFFFF” was 52100.
Take “MILARMLHIYIYKEIVDLTNVCIKCIKIISSEVRRVVLFNLDQTYETIPYIVE”: the “transcriptional activation domain activity” value stood at 66600.
For “SLVLQTVFLYMVERVDICIDYLKVHRRFREAEVYLLRFQQCMTRAMTLIKMYF” the value was 75700.
The value for “MPVLPKSSSTKRAGAPKAKGAVRAKSGCYTCRIRRKKCDENPDDAGQCQTCVR” was 36600; that for “PQPAAGKRKRGRPRTSLPESEPRSEDRRSNTPSAAPQQSAKKSRGRPPKAASK” was 38800.
The value for “GRNKRREKRPEEETTRQRRKGKREEQERRRTTKAGTKAEKRGEERRASGDANE” was 23100.
In the case of “MFKGSFFFSLTGFLFSLLFLFFYPLPCWGRDHFFCWGLECLFSLFLSWVLFTV”, the “transcriptional activation domain activity” value is 41100.
The value for “EKKRLLREKNKKRKRGEEVSDDEEEQKEEAAKKAKSEKEDSKHGIWVGNLHFS” was 50100.
For “GDAKSTLEQLGDDAKLVDEDGNLCDAECIVDKVKEVVKHAGRTTRKSLLKLGL” the value was 51100.
The value for “MVSYLIGALDIHMYGIWFWPFWLFESWASWIGLRDVFYLFIFFPLFFSLYSTL” was 49600; that for “ASDYAIGQFRYLKRLILVHGEWSYARNANMIVNFFYKNILGIGVLWWFQIYCG” was 39100; that for “GRGKESLLVLSGCSLIQIPVPVWGYHIAFVVCQKYYGSHLGIVHLILPFAFTI” was 47800.
As for “KKDEEQTSSSTPSPPPQESAEKNEAKDEEKPAEQKAKKKPKKLQVRSAGTPAP”, the “transcriptional activation domain activity” value came to 7630.
The value for “MIASHPSPFLSRLFGLPLLFFSSFIEVSLFFLFFLPSLRFLFFFFPSLALFFF” was 42700.
For “FMHYYRRDRRHLKFLVLLVLFLSTCHFGLYVLTIFRVFVTMHSVVIPSHQVPW” the value was 63000; for “GPTIRHKMNLFHVYGRRNPHLRLMISLIYVWMRSWGVKEMSPGTLCLLLIRFF”, 59800.
For “PFIIVTGLVVFVYYSYLDRIFLVLLRKLHRKALAIAYFVPLNIFIFLFIISYC” the value was 63700; for “PGLVGVFFIFSSPFSGFCFCFCFCLFELIFFFFFFFYYFLSRIGVLTRLSAGF”, 45800.
Regarding “AGLIVLSGRFNGVVRCLREGFRLRTNIDKCMIFYISCKIALISLFTLLLLVEG”, the “transcriptional activation domain activity” value is 46100.
For “QSFQTLLLILFLPPPLISPFLYVTFFFFPFFPFFFALPRFWDRWALSAFFFLL” the value was 49200.
On to “ASGSGSGSKSGGGGARQGGGGAAGAAGGKGGGAAGGSKGGGGAWGKMKAAASD”, for which the “transcriptional activation domain activity” value turned out to be 18700.
For “DNYILNNENDDGLDNLLGMDYYNIDDLLTQELRDLDIPLVPSPKTGDGSSDKK” the value was 109000; for “IRPSTPAATRSTSPPRPRPPRASRSPRPRRTRGRRSSKLRRKATSPPPATAPS”, 38200.
The value for “KPEPAGEKAEVANGEGAPEGNRRRPSGRGRGRGRGGRGARGGRDAKEEGAEEA” was 51900.
For the sequence “GWFGAVFGVLYFFLFIFGITSVYIGFSFLLYSICLSHGTVWHPLCQFHFFYFI”, the “transcriptional activation domain activity” value is 28100.
The value for “SSSNQQTRTRDGPKKKKANRACLHCQKAHLTCDDSRPCQRCVRRGMANSCTEG” was 29900.
